B1: LINE1-full (parent)
chain: UACGUAGGUGGUUUUCCCCUGAUAGUGCUAAGGGGGCCUGGAAGUUUGGACUGGGCAGAGCUCAACACAGCGUGGCAAAGUGGCUGUGGCUAGACUGCCUCUCUGGAUUCCUCGUCACUCAGCAGGGCAUCUCUGAGAGAAAUGCC

The variants in the series derive from B1. Kind of series: self-cleavage, relative activity (ratio to wild type); higher = more cleavage; in vitro, sequencing; the parent is a self-cleaving ribozyme.
For A22U A142G, the self-cleavage came to 1.31.

A22U A142U: the self-cleavage amounted to 1.48.

Consider A22G C101A, for which the self-cleavage was 1.47.

Regarding A22U A92G, the self-cleavage was determined as 0.05.

Consider A22U A92U, for which the self-cleavage came out at 0.63.

With A22G A142U, the self-cleavage is 0.92.

For the variant U23A A43G, the self-cleavage is 1.27.

A22U A59G: the self-cleavage was determined as 0.07.

For A22U A67C, the self-cleavage was 0.05.

Turning to A22G A117G, the self-cleavage was 0.97.

Take A22G A117U: the self-cleavage turned out to be 1.29.

Turning to A22G A69G, the self-cleavage came to 0.59.

Turning to A22G A69U, the self-cleavage is 0.14.

Take A22G A30U: the self-cleavage amounted to 0.58.

Turning to A22G U85G, the self-cleavage was 0.45.

In the case of A22G U85C, the self-cleavage came out at 0.27.

Take A22U A64G: the self-cleavage worked out at 0.3.

In the case of U23A A78G, the self-cleavage turned out to be 1.14.

On to A22G U119A, for which the self-cleavage came out at 2.19.

A22G U119C: the self-cleavage was determined as 1.43.

With U23A A67G, the self-cleavage was determined as 0.71.

In the case of A22U U108A, the self-cleavage was 1.08.

In the case of A22G A64G, the self-cleavage was 0.34.

Turning to A22G A64U, the self-cleavage worked out at 0.41.

Regarding U23A A140G, the self-cleavage came out at 1.41.

Consider A22U U130C, for which the self-cleavage was found to be 1.35.

As to A22U U115A, the self-cleavage worked out at 0.63.

Turning to A22G C145U, the self-cleavage worked out at 0.97.

Turning to U23A A94G, the self-cleavage was determined as 0.47.

A22G A65G: the self-cleavage stood at 0.08.

Turning to A22U C118U, the self-cleavage amounted to 1.47.

In the case of A22G C38U, the self-cleavage came to 1.95.

Consider A22G U100G, for which the self-cleavage amounted to 1.75.

Consider A22U G60U, for which the self-cleavage stood at 0.05.

Consider A22G U115G, for which the self-cleavage is 1.23.

Turning to A22G C95U, the self-cleavage came out at 0.53.

Regarding U23A A24G, the self-cleavage turned out to be 0.85.

Regarding A22U U73A, the self-cleavage worked out at 1.52.

Regarding U23A A59G, the self-cleavage is 0.24.

Regarding A22G G88A, the self-cleavage is 0.14.

In the case of A22G C84U, the self-cleavage is 0.24.

As to A22U U132C, the self-cleavage worked out at 1.6.

In the case of A22U U102C, the self-cleavage was 1.06.

For the variant A22G C63A, the self-cleavage was determined as 0.05.

As for A22U C38A, the self-cleavage amounted to 0.64.

On to U23A C120A, for which the self-cleavage worked out at 0.82.

Take A22U U29C: the self-cleavage was 1.24.

A22G A67U: the self-cleavage was 0.23.

As for A22G A67G, the self-cleavage worked out at 0.63.

With U23A G54A, the self-cleavage was 0.96.

Consider A22U U109A, for which the self-cleavage worked out at 1.34.

Regarding A22U U109C, the self-cleavage was determined as 0.91.

With U23A A117C, the self-cleavage was found to be 1.6.

As to U23A C118U, the self-cleavage came out at 1.22.

Turning to A22U U46C, the self-cleavage is 1.34.

With A22U U39A, the self-cleavage was found to be 1.17.

Take A22U A50G: the self-cleavage stood at 1.01.

Take A22G G83U: the self-cleavage was determined as 0.58.

In the case of A22G U45C, the self-cleavage worked out at 1.33.

Take A22G A43U: the self-cleavage was determined as 0.88.

In the case of U23A A79G, the self-cleavage stood at 1.31.

In the case of A22G A92U, the self-cleavage was found to be 0.79.

As to A22G A92G, the self-cleavage was 0.2.

Consider A22G C68U, for which the self-cleavage stood at 0.98.

As to A22G G70A, the self-cleavage worked out at 0.18.

As to A22G U46A, the self-cleavage was determined as 0.95.

For the variant A22G A50G, the self-cleavage amounted to 0.97.

With A22U U119A, the self-cleavage amounted to 1.46.

Regarding A22U U119C, the self-cleavage turned out to be 1.52.

As to U23A C98G, the self-cleavage is 0.14.

Regarding A22U U85C, the self-cleavage worked out at 0.26.

Turning to A22U U62C, the self-cleavage came to 0.13.

As to A22G C113U, the self-cleavage came out at 0.92.

With A22G C113G, the self-cleavage came to 0.82.

For A22G C51A, the self-cleavage was 0.4.

Consider A22U G105A, for which the self-cleavage is 1.29.

With A22U A129U, the self-cleavage amounted to 1.47.

Consider A22U G83A, for which the self-cleavage was found to be 0.82.

With A22G G137A, the self-cleavage was determined as 1.52.

For A22U A140G, the self-cleavage worked out at 0.71.

With A22U G144A, the self-cleavage turned out to be 1.08.

Regarding A22G A78U, the self-cleavage amounted to 1.85.

With A22G A78G, the self-cleavage came out at 0.94.

Turning to A22G G53A, the self-cleavage amounted to 1.09.

Turning to A22G A59G, the self-cleavage is 0.16.

As to A22U A78G, the self-cleavage was found to be 1.54.

For the variant A22U A94U, the self-cleavage was 0.17.

A22U A57G: the self-cleavage turned out to be 0.84.

Consider A22U A57U, for which the self-cleavage was found to be 0.12.

A22G U108C: the self-cleavage was found to be 1.16.

In the case of A22G G48U, the self-cleavage came out at 1.05.

For the variant A22U A43U, the self-cleavage came out at 1.43.

With A22G C98U, the self-cleavage came out at 0.64.

Take A22G G27A: the self-cleavage worked out at 1.

As to A22U G93A, the self-cleavage worked out at 0.07.

On to U23A C146U, for which the self-cleavage came out at 1.27.

On to A22U A124G, for which the self-cleavage is 0.47.

As for U23A A121G, the self-cleavage came to 1.41.

Regarding U23A A64C, the self-cleavage was found to be 0.48.

Take A22U C68U: the self-cleavage worked out at 0.13.

Regarding A22G G36C, the self-cleavage was found to be 0.37.

For the variant A22G U29A, the self-cleavage stood at 1.24.

For the variant A22U A136G, the self-cleavage was 1.13.

Consider A22U A136U, for which the self-cleavage turned out to be 1.04.

Take A22U U134A: the self-cleavage worked out at 1.15.

Consider U23A A138G, for which the self-cleavage worked out at 0.76.

Take A22U U52C: the self-cleavage is 1.73.

As for U23A A65G, the self-cleavage amounted to 0.1.

For A22G A129C, the self-cleavage came to 0.27.

Regarding A22G G32U, the self-cleavage came to 0.6.

For A22G G32A, the self-cleavage came out at 0.57.

Regarding A22G U47A, the self-cleavage stood at 1.15.

Take A22U U45A: the self-cleavage was 0.83.

As for A22U A117U, the self-cleavage was 1.36.

Regarding A22G C123U, the self-cleavage was 0.99.

Regarding A22G U52A, the self-cleavage worked out at 1.21.

As to U23A, the self-cleavage was determined as 1.3.

Take A22G G126A: the self-cleavage turned out to be 1.74.

On to A22U C99U, for which the self-cleavage is 0.51.

As to A22G C110U, the self-cleavage stood at 0.92.

On to U23A A107U, for which the self-cleavage was 1.1.

Regarding A22G C76G, the self-cleavage was found to be 2.86.

For the variant A22G C90U, the self-cleavage turned out to be 0.04.

Consider A22G C128U, for which the self-cleavage was found to be 1.26.

Turning to A22G U81C, the self-cleavage was found to be 1.18.

Regarding A22G U81G, the self-cleavage is 1.03.

In the case of A22G U87A, the self-cleavage is 0.22.

In the case of A22G U87C, the self-cleavage came out at 0.28.

Regarding A22G U132C, the self-cleavage stood at 1.11.

As to A22G U132A, the self-cleavage amounted to 0.48.

Take A22G G125A: the self-cleavage stood at 1.9.

As for A22U G49A, the self-cleavage came out at 1.08.

A22G C131G: the self-cleavage is 1.8.

In the case of A22G C131U, the self-cleavage is 1.03.

Consider A22U A65U, for which the self-cleavage is 0.18.

For the variant A22G G33A, the self-cleavage amounted to 0.65.

On to A22G A107U, for which the self-cleavage was 0.

Turning to A22U A121C, the self-cleavage is 1.27.

A22G U26G: the self-cleavage was 0.75.

Regarding A22G U26A, the self-cleavage was determined as 1.4.

In the case of A22G U26C, the self-cleavage is 0.83.

For the variant A22G A136U, the self-cleavage turned out to be 0.87.

A22G A136G: the self-cleavage worked out at 1.17.

As for A22G A136C, the self-cleavage turned out to be 1.49.

Consider A22G A79U, for which the self-cleavage was 1.51.

Take A22G U96C: the self-cleavage was 0.2.

As for A22G C37G, the self-cleavage was determined as 0.79.

In the case of A22G G34U, the self-cleavage was determined as 1.66.

As for U23A A31U, the self-cleavage came out at 0.37.

Take U23A A31G: the self-cleavage came out at 0.93.

For the variant A22G U73G, the self-cleavage was 1.49.

Regarding A22G U73C, the self-cleavage stood at 1.37.

With A22G G106U, the self-cleavage is 0.73.

With A22U G106A, the self-cleavage turned out to be 1.55.

Turning to A22G A57U, the self-cleavage was 0.2.

A22G A57G: the self-cleavage was found to be 0.67.

Consider A22G A124U, for which the self-cleavage was determined as 0.8.

Take A22G A124C: the self-cleavage was determined as 1.49.

A22G A124G: the self-cleavage amounted to 0.96.

For the variant A22G U112C, the self-cleavage was 1.25.

For A22G U112A, the self-cleavage was determined as 1.84.

On to A22G U109A, for which the self-cleavage came to 1.13.

In the case of A22G U130C, the self-cleavage turned out to be 1.3.

As for A22G U130A, the self-cleavage came to 1.52.

Regarding A22U U112A, the self-cleavage is 1.19.

Consider A22G G80A, for which the self-cleavage was determined as 2.37.

Turning to A22U U26C, the self-cleavage came out at 1.18.

The values are drawn from the RNAGym collection of RNA variant scans (doi:10.7554/elife.90254).
